# Reference: patent US20240317859A1 (FOUNDATION FOR BIOMEDICAL RESEARCH AND INNOVATION AT KOBE, published 2024)
# Changes are numbered by the printed parent chain. In names and notes the source's numbering stands.
# T1: substituted human PD-1, domain #1 replaced with the corresponding amino acid sequence of mouse PD-1 (human; mouse, UniProt Q15116 25-288)
# T1 construct: also called PD-1 when domain #1 is replaced
# T1 chain: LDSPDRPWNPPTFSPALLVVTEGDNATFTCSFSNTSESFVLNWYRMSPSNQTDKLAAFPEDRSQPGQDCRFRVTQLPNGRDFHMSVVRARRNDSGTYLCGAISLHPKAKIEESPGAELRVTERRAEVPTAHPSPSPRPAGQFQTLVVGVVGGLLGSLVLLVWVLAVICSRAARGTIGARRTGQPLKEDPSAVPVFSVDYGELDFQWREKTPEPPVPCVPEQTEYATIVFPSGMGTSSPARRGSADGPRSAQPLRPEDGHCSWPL
# T2: substituted human PD-1, domain #6 replaced with the corresponding amino acid sequence of mouse PD-1 (human; mouse, UniProt Q15116 25-288)
# T2 construct: Human limits of domain #6 (109-120) are printed; also called PD-1 if domain #6 is replaced
# T2 chain: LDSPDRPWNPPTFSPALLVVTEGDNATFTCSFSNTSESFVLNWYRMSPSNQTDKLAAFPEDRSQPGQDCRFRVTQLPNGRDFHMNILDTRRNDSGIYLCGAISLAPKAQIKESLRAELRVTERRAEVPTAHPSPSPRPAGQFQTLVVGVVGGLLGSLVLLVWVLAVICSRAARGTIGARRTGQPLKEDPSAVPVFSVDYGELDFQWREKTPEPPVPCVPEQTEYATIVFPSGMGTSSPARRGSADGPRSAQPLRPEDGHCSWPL
# T3: substituted human PD-1, domain #7 replaced with the corresponding amino acid sequence of mouse PD-1 (human; mouse, UniProt Q15116 25-288)
# T3 construct: Human limits of domain #7 (38-48) are printed; also called PD-1 if domain #7 is replaced
# T3 chain: T1 chain with S14Y, L17W, V19T, T21S, D24A, H105A, K109Q, E111K, P114L, G115R
# B1: HM268-K7 (antibody, human IgG1, V domains shown)
# VH: QVQLVQSGPEVKKPGASVKVVCKTSGYTFTSYYIQWLKQRPGQGLEWIGWIYFGDASTKYNEKFKGRVTMTADKSTSTAYMELRSLRSDDTAVYYCASYYGSYFDYWGQGTTVTVSS
# VL: DIQMTQNTSSLSASVGDRVTITCRASQDISNYLNWYQQKPDGTVKLLIYSTSRLHSGVPSRFSGSGSGTDYTLTISSLEQEDFATYYCQQGSTLPFTFGQGTKLEIK
# notes: also called humanized HM268, VH ver.K / VL ver.7
# B2: humanized HM268-K8-IgG1-K322A (antibody, V domains shown)
# VH: B1 VH
# VL: DIQMTQSPSSLSASVGDRVTITCRASQDISNYLNWYQQKPDGTVKLLIYSTSRLHSGVPSRFSGSGSGTDYTLTISSLQPEDFATYYCQQGSTLPFTFGQGTKLEIKR
# B3: HM268-L7 (antibody, human IgG1, V domains shown)
# VH: B1 VH with L37V, K38R, R40V, I48M, K74T
# VL: B1 VL
# notes: also called humanized HM268, VH ver.L / VL ver.7
# B4: HM268-L9 (antibody, human IgG1, V domains shown)
# VH: B1 VH with L37V, K38R, R40V, I48M, K74T
# VL: B1 VL with N7S, T8P, D41G, G42K, T43A, V44P, E79Q, Q80P
# notes: also called humanized HM268, VH ver.L / VL ver.9
# B5: HM268-M7 (antibody, human IgG1, V domains shown)
# VH: B1 VH with T24A, L37V, K38R, R40V, I48M, K74T
# VL: B1 VL
# notes: also called humanized HM268, VH ver.M / VL ver.7
# B6: HM268-M9 (antibody, human IgG1, V domains shown)
# VH: B1 VH with T24A, L37V, K38R, R40V, I48M, K74T
# VL: B1 VL with N7S, T8P, D41G, G42K, T43A, V44P, E79Q, Q80P
# notes: also called humanized HM268, VH ver.M / VL ver.9
# B7: HM268-L8 (antibody, human IgG1, V domains shown)
# VH: B1 VH with L37V, K38R, R40V, I48M, K74T
# VL: B1 VL with N7S, T8P, E79Q, Q80P
# notes: also called humanized HM268, VH ver.L / VL ver.8
# B8: HM268-K9 (antibody, human IgG1, V domains shown)
# VH: B1 VH
# VL: B1 VL with N7S, T8P, D41G, G42K, T43A, V44P, E79Q, Q80P
# notes: also called humanized HM268, VH ver.K / VL ver.9
# B9: chimeric HM268-IgG1-K322A (antibody)
# heavy: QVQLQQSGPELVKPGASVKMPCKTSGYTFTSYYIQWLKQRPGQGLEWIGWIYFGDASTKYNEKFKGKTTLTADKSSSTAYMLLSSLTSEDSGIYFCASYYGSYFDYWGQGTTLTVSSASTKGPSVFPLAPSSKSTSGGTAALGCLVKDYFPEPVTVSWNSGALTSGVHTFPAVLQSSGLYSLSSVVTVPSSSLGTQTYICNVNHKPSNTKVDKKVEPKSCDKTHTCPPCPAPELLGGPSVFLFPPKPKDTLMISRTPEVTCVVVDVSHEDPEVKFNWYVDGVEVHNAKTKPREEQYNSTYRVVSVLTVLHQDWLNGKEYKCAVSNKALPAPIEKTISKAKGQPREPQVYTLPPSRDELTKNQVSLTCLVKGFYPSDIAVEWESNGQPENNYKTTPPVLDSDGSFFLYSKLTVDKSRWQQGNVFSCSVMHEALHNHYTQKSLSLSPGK
# light: NIQMTQNTSSLSATLGVRVTISCRASQDISNYLNWYQQKPDGTVKLLIYSTSRLHSGIPSRFSGSGSGTDYSLTISNLEQEDIATYFCQQGSTLPFTFGGGTKLEIKRTVAAPSVFIFPPSDEQLKSGTASVVCLLNNFYPREAKVQWKVDNALQSGNSQESVTEQDSKDSTYSLSSTLTLSKADYEKHKVYACEVTHQGLSSPVTKSFNRGEC
# notes: Mouse Fab region with the Fc region of human IgG1-K322A
# B10: mouse HM266 (antibody, mouse IgG2a, kappa, V domains shown)
# VH: QVQLQQSGPELVKPGASVKMSCKASGYTFTSYYIQWVKQRPGQGLEWIGWIYPGDGSSKYNEKFKGKTTLTADKSSSTAYMLLSSLTSEDSGIYFCASYYGSSFDYWGQGTTLTVSS
# VL: DIQMTQTTSSLSASLGDRVTISCRASQDISNYLNWYQQKPDGTVKFLIYYSSRLHSGVPSRFSGSGSGTDYSLTISNLEQEDIATYFCQQGSTLPFTFGGGTKLEIKR
# notes: Mouse anti-human PD-1 monoclonal antibody (mouse IgG)
# B11: mouse HM297 (antibody, mouse IgG2a, kappa)
# heavy: EVLLQQSGPELVKPGASVKIPCKASGYTFTDYNVDWVRQSHGKSLEWIGDIDPNNGGTIYNQKFKDKATLTVDKSSRTAYMELRSLTSEDTAVYYCARWRGAMDYWGQGTSVTVSSAKTTAPSVYPLAPVCGDTTGSSVTLGCLVKGYFPEPVTLTWNSGSLSSGVHTFPAVLQSDLYTLSSSVTVTSSTWPSQSITCNVAHPASSTKVDKKIEPRGPTIKPCPPCKCPAPNLLGGPSVFIFPPKIKDVLMISLSPIVTCVVVDVSEDDPDVQISWFVNNVEVHTAQTQTHREDYNSTLRVVSALPIQHQDWMSGKEFKCKVNNKDLPAPIERTISKPKGSVRAPQVYVLPPPEEEMTKKQVTLTCMVTDFMPEDIYVEWTNNGKTELNYKNTEPVLDSDGSYFMYSKLRVEKKNWVERNSYSCSVVHEGLHNHHTTKSFSRTPGK
# light: DVQMTQTTSSLSASLGDRVTISCRASQDIDNYLKWYQQKPDGTVKLLIYDTSRLHSGVPSRFSGSGSGTDYSLTISNLKQEDIATYFCQQGYTLPWTFGGGTRLEIKRADAAPTVSIFPPSSEQLTSGGASVVCFLNNFYPKDINVKWKIDGSERQNGVLNSWTDQDSKDSTYSMSSTLTLTKDEYERHNSYTCEATHKTSTSPIVKSFNRNEC
# notes: as for B10
# B12: HM624 (antibody, V domains shown)
# VH: EVLLQQSGPELVQPGTSVKIFCKASGYTFTDYNIDWVKQSHGKSHEWIGDIDPNNGGTVYNQKFKGKATLTVDKSSTTAYMELRSLTSEDTAVYYCTRWRGAMDYWGRGTSVTVSS
# VL: DIQMTQTTSSLSASLGDRVTISCRASQDVSNYLNWYQQKPDGTVKLLIYDTSKLHSGVPSRFSGSGSGTDYSLTIRDPDQEDIATYFCQQGHTLPWTFGGGTKLEIRR
# B13: HM698 (antibody, V domains shown)
# VH: B12 VH with Q13K, T16A, F21P, I34M, H45L, T69S, T77S, T97A, G101S, R108Q
# VL: B10 VL with F46L, S51T, G91Y, S92N, F96W
# B14: HM647 (antibody, V domains shown)
# VH: EVLLQQSGPELVKPGASVKITCKASGYTFTDYNMDWVKQSHGKSLEWIGDIDPNNGGTVYNQKFKDKASLTVDKSSSTGYMELRSLTSEDTAVYYCARWRSAMDYWGQGTSVTVSS
# VL: B10 VL with T7P, F46L, Y49S, S51T, E81V, G91Y, F96W, T102S
# Target: T4, human PD-1 (wild-type), expressed on cells (human, UniProt Q15116 25-288)
# Test: cell-based or functional assay
row,Binder,Cell-cell contact assay [ng/mL]
1,B1,43.7
2,B2,39.4
3,B3,103
4,B4,87.4
5,B5,149
6,B6,1430
7,B7,98.2
8,B8,150
9,B9,46.5

# Target: T4, human PD-1 (wild-type), expressed on …
# Test: flow cytometry on PD-1-expressing cells
# Source text: The gene of human PD-1 (wild-type) or substituted human PD-1 in which regions 1 to 8 as shown in FIG. 2A were replaced with mouse sequences and a gene of fluorescent protein such as GFP were co-expressed in a cell line (such as DO11.10 T cell hybridoma or HEK293T) by means of a vector ligating the genes with IRES sequences. The expression level of PD-1 on this cell line is correlated with the expression level of fluorescent protein such as GFP. Anti-PD-1 antibody was bound to the PD-1/GFP expressing cells, and the bound antibody was detected with a secondary antibody labeled with a different fluorescent dye. Briefly, PD-1-expressing cells were seeded in V-shaped bottom 96-well plates at 1×10⁵ cells/well. To each cell pellet, 50 μl of anti-human PD-1 antibody adjusted to 5 μg/ml was added and mixed. The mixture was incubated at 4° C. for 15 minutes. After washing, BV421-labeled anti-mouse IgG antibody or BV421-labeled anti-human IgG antibody, each adjusted to 5 μg/ml, was added in 50 μl. The mixture was incubated at 4° C. for 15 minutes. […] The fluorescence intensity of the filtrate was measured with a flow cytometer. The thus obtained fluorescence intensity can be rephrased as the binding capacity of anti-human PD-1 antibody to human PD-1 (wild-type or substituted). […] Binding characteristics to R143A point mutant or substituted Mouse PD-1 (hu38-48) were also analyzed in the same manner.
row,Binder,binding result
1,B10,binds

# Target: T1, substituted human PD-1, domain #1 …
# Test: flow cytometry on cells expressing substituted human PD-1
# Source text: (§1) These sub-groups of antibodies are characterized by a common nature that they bind to domain #6 and domain #7, and are distinguished from known antibodies.
# (§2) The gene of human PD-1 (wild-type) or substituted human PD-1 in which regions 1 to 8 as shown in FIG. 2A were replaced with mouse sequences and a gene of fluorescent protein such as GFP were co-expressed in a cell line (such as DO11.10 T cell hybridoma or HEK293T) by means of a vector ligating the genes with IRES sequences. The expression level of PD-1 on this cell line is correlated with the expression level of fluorescent protein such as GFP. Anti-PD-1 antibody was bound to the PD-1/GFP expressing cells, and the bound antibody was detected with a secondary antibody labeled with a different fluorescent dye. Briefly, PD-1-expressing cells were seeded in V-shaped bottom 96-well plates at 1×10⁵ cells/well. To each cell pellet, 50 μl of anti-human PD-1 antibody adjusted to 5 μg/ml was added and mixed. The mixture was incubated at 4° C. for 15 minutes. After washing, BV421-labeled anti-mouse IgG antibody or BV421-labeled anti-human IgG antibody, each adjusted to 5 μg/ml, was added in 50 μl. The mixture was incubated at 4° C. for 15 minutes. After washing, cells were suspended in 200 μl of buffer, and passed through a 70 μm filter. The fluorescence intensity of the filtrate was measured with a flow cytometer. The thus obtained fluorescence intensity can be rephrased as the binding capacity of anti-human PD-1 antibody to human PD-1 (wild-type or substituted). […] Binding characteristics to R143A point mutant or substituted Mouse PD-1 (hu38-48) were also analyzed in the same manner.
row,Binder,binding result
1,B11,no binding (tested: 5 µg/ml)
2,B12,no binding (tested: 5 µg/ml)

# Target: T2, substituted human PD-1, domain #6 …
# Test: as above
# Source text: as §1, §2
row,Binder,binding result
1,B11,no binding (tested: 5 µg/ml)
2,B13,no binding (tested: 5 µg/ml)
3,B14,no binding (tested: 5 µg/ml)
4,B12,no binding (tested: 5 µg/ml)

# Target: T3, substituted human PD-1, domain #7 …
# Test: as above
# Source text: as §1, §2
row,Binder,binding result
1,B11,no binding (tested: 5 µg/ml)
2,B13,no binding (tested: 5 µg/ml)
3,B14,no binding (tested: 5 µg/ml)
4,B12,no binding (tested: 5 µg/ml)

# Target: Human PD-1/PDCD1 Protein (PD-1) (human, UniProt Q15116 25-167, limits assumed)
# Test: SPR, Biacore 8K; PD-1 captured by anti-His antibody, antibody in flow
# Procedure: The binding affinity of each antibody to human PD-1 was measured with Biacore 8K (Cytiva). Briefly, anti-His Tag antibody was immobilized by amine coupling using Amine Coupling Kit and His Capture Kit, onto 8 channels of a sensor chip (provided with 16 flow cells; one channel consisting of two flow cells) which had carboxymethyl dextran immobilized on a gold film. The immobilization was performed by feeding an activation solution (NHS and EDC mixed in equal amounts) at a flow rate of 10 μl/min for 7 minutes, an immobilization solution at a flow rate of 5 μl/min for 7 minutes, and 1 M ethanolamine hydrochloride-NaOH (pH 8.5) at a flow rate of 10 μl/min for 7 minutes. The buffer used at the time of immobilization was 1×HBS-EP+ Buffer. After the immobilization and before applying a sample, Human PD-1/PDCD1 Protein (PD-1) adjusted to 1 μg/ml with 1×HBS-EP+ Buffer was fed to one of the two flow cells of each channel in an amount of 20 μl at a flow rate of 10 μl/min to thereby capture PD-1 on the sensor chip. As regards the other flow cell, 1×HBS-EP+ Buffer was fed in the same manner to prepare a control flow cell. Each antibody was adjusted to 16 nM with 1×HBS-EP+ Buffer, and then subjected to 2-fold 7-step serial dilution using 1×HBS-EP+ Buffer. The resultant sample solution (30 μl) was fed to each flow cell at a flow rate of 10 μl/min and the response was measured. After subtracting the response of control flow cell from the response of the flow cell which was allowed to capture the ligand, KD value was calculated by curve fitting using Biacore 8K Evaluation Software.
row,Binder,Kd [pM]
1,B1,6.91
2,B2,< 3.06
3,B3,2.16
4,B4,11.1
5,B5,12
6,B6,61.4
7,B7,1.29
8,B8,151
9,B9,< 1.69
